Biological target: T1, Ets-1 ΔN331 (UniProt P27577 331-440)
T1 sequence: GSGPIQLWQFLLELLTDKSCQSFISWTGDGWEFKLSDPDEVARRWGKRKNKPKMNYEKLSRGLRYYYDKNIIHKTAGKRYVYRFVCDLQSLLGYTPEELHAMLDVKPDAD
Assay: EMSA

B1: high affinity ETS binding site 27-mer duplex (dsDNA)
DNA 1: TCGACGGCCAAGCCGGAAGTGAGTGCC
DNA 2: TCGAGGCACTCACTTCCGGCTTGGCCG
- binding result: binds

From publication PMC4808631
